# Target: His-tagged FtsZ (filamentous temperature-sensitive protein Z) (Streptococcus suis)
# Test: SPR; His-tagged FtsZ immobilized onto sensor chips as the ligand; MsmK constructs in concentration series as analytes; buffer without protein as negative control
Substance,Kd [nM],koff [s⁻¹],kon [M⁻¹ s⁻¹]
"A_MsmK, MsmK with the Walker A motif deleted, His-tagged (from UniProt A0A0H3N1P0 1-376) (enzyme)",0.406,0.000102,251000
"B_MsmK, MsmK with the Walker B motif deleted, His-tagged (from UniProt A0A0H3N1P0 1-376) (enzyme)",0.309,0.000132,427000
